Experimental data taken from US11248019B2, “Trityl-mono-GalNAc compounds and their use” (Hoffmann-La Roche Inc., priority 2016, dated 2022).

Experiments:
Type in all cases: in vivo, C57BL6/J mice
[1] = system: ApoB mRNA; assay: ApoB mRNA knockdown in liver and kidney by qPCR, single iv dose 0.1 mg/kg, day 7 or 14 (Example 7); conditions: 0.1 mg/kg single iv dose
Procedure: (§1) ApoB mRNA knockdown was analyzed by qPCR. In brief, RNA was isolated from homogenized liver and kidney using MagnaPure RNA Isolation and purification system (catalog #03604721001 and #05467535001; Roche) according to the manufacturer's instructions. RT-QPCR was done using Taqman Fast Universal PCR Master Mix 2×(Applied Biosystems Cat #4364103) and Taqman gene expression assay (mApoB, Mn01545150_m1 and mGAPDH #4352339E) following the manufacturers protocol.
(§2) Female C57BL6/J mice (5/group appr. 20 g at arrival) were injected intravenous (iv) with a single dose saline or 0.1 mg/kg of GalNAc conjugated LNA antisense oligonucleotide (Compound J, K, L, B or C of the invention or reference compound M). Blood samples of 50 μl were collected pre-dosing at day minus 6, and post dosing at day 3, 7, 10 and 14. The animals were sacrificed at day 7 or 14 and total serum was collected as well as liver and kidney.
ApoB mRNA knock down was measured as described in example 4.

[2] = Oligonucleotide content in liver and kidney by ELISA (Example 7); conditions: 0.1 mg/kg single iv dose
Procedure: as §2
The oligonucleotide content in the liver and kidney was measured using ELISA (see for example Straarup et al 2010 Nucleic Acid Res Vol 38 pp 7100-7111), results are shown in Table 16.

[3] = ALT in serum (Example 7); conditions: 0.1 mg/kg single iv dose
Procedure: as §2
ALT (Alanine aminotransferase) was measured using ABX Pentra ALT CP reagent (A11A01627 Triolab, Brondby, Denmark. The results are shown in table 17.

[4] = system: ApoB mRNA; assay: ApoB mRNA knockdown in liver and kidney by qPCR, single sc dose, sacrifice day 10 (Example 4); conditions: for ApoB mRNA expression as % of saline, mRNA kidney: day 10, kidney; for ApoB mRNA expression as % of saline, mRNA liver: day 10, liver
Procedure: (§3) Female C57BL6/J mice (5/group appr. 20 g at arrival) were injected subcutaneous (sc) with a single dose saline or 0.25 mg/kg unconjugated LNA-antisense oligonucleotide (compound F) or with 0.25 mg/kg or 0.1 mg/kg of GalNAc conjugated LNA antisense oligonucleotide (Compound C or E of the invention or reference compound G). Blood samples of 50 μl were collected pre-dosing at day minus 6, and post dosing at day 3 and 7. The animals were sacrificed at day 10 and total serum was collected as well as liver and kidney.
as §1

[5] = Oligonucleotide content in liver and kidney by ELISA (Example 4); conditions: for Oligonucleotide content, Kidney / Oligonucleotide content, Liver: day 10
Procedure: as §3
The oligonucleotide content in the liver and kidney was measured using ELISA (see for example Straarup et al 2010 Nucleic Acid Res Vol 38 pp 7100-7111), results are shown in Table 6.

| Substance | ApoB mRNA/mGAPDH expression as % of saline, Avg kidney ([1]; Day 7, kidney) | ApoB mRNA/mGAPDH expression as % of saline, Avg liver ([1]; Day 7, liver) | ApoB mRNA/mGAPDH expression as % of saline, Avg kidney ([1]; Day 14, kidney) | ApoB mRNA/mGAPDH expression as % of saline, Avg liver ([1]; Day 14, liver) | Oligonucleotide content, Avg kidney ([2]; Day 7, kidney tissue) [µg/g] | Oligonucleotide content, Avg liver ([2]; Day 7, liver tissue) [µg/g] | Oligonucleotide content, Avg kidney ([2]; Day 14, kidney tissue) [µg/g] | Oligonucleotide content, Avg liver ([2]; Day 14, liver tissue) [µg/g] | ALT levels (U/L) in serum as % of saline ([3]; Day 7) | ALT levels (U/L) in serum as % of saline ([3]; Day 14) | also measured |
| --- | --- | --- | --- | --- | --- | --- | --- | --- | --- | --- | --- |
| 5′-cOaOGS^mCSaStStSgSgStSaStSTS^mCSA-3′ [B] | 62.5 % of saline | 49.2 % of saline | 100.3 % of saline | 112.8 % of saline | 0.353 | 0.161 | 0.152 | 0.066 | 177.3 % of saline | 108.5 % of saline |  |
| 5′-cOaOGS^mCSaStStSgSgStSaStSTS^mCSA-3′ [Compound C] | 93.8 % of saline | 63.2 % of saline | 74.4 % of saline | 116.3 % of saline | 0.307 | 0.493 | 0.118 | 0.209 | 136.7 % of saline | 111.3 % of saline | ApoB mRNA expression as % of saline, mRNA kidney ([4]; 0.1 mg/kg single sc dose): 72.4 % of saline; ApoB mRNA expression as % of saline, mRNA liver ([4]; 0.1 mg/kg single sc dose): 69.6 % of saline; ApoB mRNA expression as % of saline, mRNA kidney ([4]; 0.25 mg/kg single sc dose): 56.1 % of saline; ApoB mRNA expression as % of saline, mRNA liver ([4]; 0.25 mg/kg single sc dose): 24.0 % of saline; knock down of ApoB mRNA compared to the GalNAc2 cluster conjugated LNA oligonucleotide (compound G) ([4]; in words, high dose (0.25 mg/kg)): better knockdown; knock down of ApoB mRNA in the liver compared to unconjugated (naked) oligonucleotide (compound F) ([4]; in words, single sc dose, day 10): improved knock down; Oligonucleotide content, Kidney ([5]; 0.1 mg/kg single sc dose): 0.080 μg/g tissue; Oligonucleotide content, Liver ([5]; 0.1 mg/kg single sc dose): 0.028 μg/g tissue; Oligonucleotide content, Kidney ([5]; 0.25 mg/kg single sc dose): 0.080 μg/g tissue; Oligonucleotide content, Liver ([5]; 0.25 mg/kg single sc dose): 0.028 μg/g tissue; uptake in liver and kidney compared to the unconjugated oligonucleotide (compound F) ([5]; in words): enhanced uptake in the liver and reduced uptake in the kidney; liver/kidney distribution ratio compared to GalNAc2 conjugated LNA oligonucleotide (compound G) ([5]; in words, high dose): improved liver/kidney distribution ratio |
| 5′-cOaOGS^mCSaStStSgSgStSaStSTS^mCSA-3′ [K] | 80.2 % of saline | 48.7 % of saline | 86.2 % of saline | 112.4 % of saline | 0.275 | 0.401 | 0.129 | 0.173 | 170.3 % of saline | 77.3 % of saline |  |
